Test results published in patent US20160032292, “Aptamer-Guided Gene Targeting” (Georgia Tech Research Corporation, published 2016).

Legend:
[1] = biological target: T1, I-SceI homing endonuclease (expressed in yeast from GAL1-10 promoter) (UniProt P03882 P03882:1-235); test: cell_activity; gene correction over non-binding C.TRP5.54 (62500 vs 8950 per 1e7 cells); galactose; conditions: aptamer hairpin at 5' end (predicted)
T1 sequence: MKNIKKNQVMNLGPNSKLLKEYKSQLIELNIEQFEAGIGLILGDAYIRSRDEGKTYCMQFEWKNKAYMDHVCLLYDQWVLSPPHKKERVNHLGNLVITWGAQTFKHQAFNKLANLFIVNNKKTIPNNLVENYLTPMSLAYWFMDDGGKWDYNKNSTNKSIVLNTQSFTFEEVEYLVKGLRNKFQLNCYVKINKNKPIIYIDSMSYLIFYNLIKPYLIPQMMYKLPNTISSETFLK
Protocol: (§1) For this experiment, I-SceI was induced 3 h by addition of galactose (final concentration 2%) to the liquid YPLac medium before transformation by oligonucleotides, and cells were plated on selective media containing glucose. Viability after transformation was calculated by plating to glucose-containing synthetic complete medium. Viability after transformation for the I-SceI-containing strains was typically 20-40% both on glucose and galactose. […] The frequency of gene correction is based on the number of transformants relative to 10⁷ viable cells that formed a colony on galactose-containing synthetic complete medium (or glucose-containing synthetic complete medium depending on the transformation experiment). Yeast cell culture and standard molecular biology techniques were used as previously described
Therefore, we removed the primer regions surrounding the I-Sce I aptamer sequence in the bifunctional oligonucleotides, and this also allowed us to extend the sequence length of the gene-correction donor part of the bifunctional molecule. Oligonucleotides that contained the aptamer sequences from A4 or A7 at the 5′ end of a DNA sequence containing 54 bases of homology to restore the disrupted trp5 gene (A4.TRP5.54 and A7.TRP5.54, Table 1) were tested in yeast strains FRO-155/156 and FRO-526/527 (T5B and T5 in FIG. 1) for their capacity to restore the functionality of the trp5 gene. […]

[2] = biological target: T1, I-SceI homing endonuclease (expressed …); test: cell_activity; gene correction over C.LEU2.54; BY4742 and 55R5-3C
Protocol: as §1, with “Sequences of oligonucleotides used for repair can be found in Table 1. Cells from each transformation were diluted appropriately and plated to synthetic complete medium lacking the respective amino acid and containing 2% galactose for I-SceI induction, 2 or 0.2% galactose for HO induction or 2% glucose for I-SceI or HO repression. The exception to this is the experiment to determine the position of the aptamer in the targeting DNA sequence (at the 5′ or 3′ end). For” for “For”, “described […]” for “described”

[3] = biological target: T2, I-SceI homing endonuclease (UniProt P03882 P03882:1-235); test: EMSA; negative control; described as non-binding random control; 3 uM I-SceI, Mg2+, Zn2+, gel result not shown; conditions: tags: provided by F. Gimble (Purdue University), dialyzed; label: 5' 32P
T2 sequence: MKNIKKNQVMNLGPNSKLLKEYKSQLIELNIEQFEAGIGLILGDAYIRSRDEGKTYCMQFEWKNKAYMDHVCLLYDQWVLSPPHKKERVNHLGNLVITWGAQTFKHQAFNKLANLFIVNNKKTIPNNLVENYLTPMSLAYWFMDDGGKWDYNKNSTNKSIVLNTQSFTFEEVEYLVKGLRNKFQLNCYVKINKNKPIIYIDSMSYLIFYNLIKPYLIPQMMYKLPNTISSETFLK
Protocol: The internal region was chosen using a random DNA sequence generator with a specified GC content of 50% (http://www.faculty.ucr.edu/˜mmaduro/random.htm). I-SceI was dialyzed before running the EMSA gels in Run Buffer 1 (RB1), 50 mM Tris-HCl at pH 8.2, as previously described. Bovine serum albumin (BSA) was purchased as a lyophilized powder through Sigma-Aldrich (St. Louis, Mo.) and was greater than 98% pure. BSA stock of 10 mg/ml was made in RB1 buffer.
The buffer conditions used for binding had several components described previously (22). Each reaction consisted of 2 μL 5×EMSA buffer 1 (100 mM Tris-HCl at pH 8.5, 250 mM NaCl, 10 μM ZnCl₂, 10 mM MgCl₂, 10% glycerol), 1 μL BSA (10 mg/ml), 1 μL freshly prepared 20 mM DTT, and 1 μL 100 mM MgCl₂ for a final buffer concentration of 20 mM Tris-HCl, 50 mM NaCl, 2 μM ZnCl₂, […], 1 mg/ml BSA, […], and 2% glycerol. After mixing these components together, 2 μL of dialyzed I-SceI (total of 3 μM) for each reaction was added, bringing the volume to […]. The radiolabeling of the oligonucleotides had varying efficiencies such that the counts per minute (cpm) measurement of the radioactivity for each labeled oligonucleotide was different. […] The radioactivity in the gel was analyzed by Phosphor Imager (Molecular Dynamics—Typhoon Trio Imager™, GE Healthcare Life Sciences, Pittsburgh, Pa.). […]

[4] = biological target: T1, I-SceI homing endonuclease (expressed …); test: cell_activity; gene correction over C.TRP5.40 (202 vs 13.9); 32-fold with PAGE-purified oligos
[5] = biological target: T1, I-SceI homing endonuclease (expressed …); test: cell_activity; gene correction over C.TRP1.54; 55R5-3C
Protocol: as §1, with “Sequences of oligonucleotides used for repair can be found in Table 1. Cells from each transformation were diluted appropriately and plated to synthetic complete medium lacking the respective amino acid and containing 2% galactose for I-SceI induction, 2 or 0.2% galactose for HO induction or 2% glucose for I-SceI or HO repression. The exception to this is the experiment to determine the position of the aptamer in the targeting DNA sequence (at the 5′ or 3′ end). For” for “For”, “described […]” for “described”

[6] = biological target: T2, I-SceI homing endonuclease; test: capillary electrophoresis with LIF; binding affinity about 3.16 uM; 50 nM A7, 1 uM I-SceI (FIG. 9D); binding also seen by EMSA; conditions: tags: provided by F. Gimble (Purdue University), dialyzed; label: 5' FAM; hairpin with 4-nt loop (mfold prediction)
Protocol: (§2) The protocol for SELEX using capillary electrophoresis (CE) was essentially as described earlier (Berezovski, et al., Nat. Protoc., 1:1359-1369 (2006)), but with a few modifications. Initial calibrations were done with a serial dilution of the aptamer library in RB1. The free DNA run time with 100 nM of the library was determined (FIG. 8A). […] CE was done using a Beckman Coulter (Atlanta, Ga., USA) P/ACE MDQ with laser-induced fluorescence (LIF) detection. The LIF was composed of a 488-nm air-cooled argon ion laser along with an on-board detector. CE runs were carried out with a voltage of 10 kV. The first round of selection began after determination of the collection window based on the bulk affinity analysis. For the initial round of in vitro selection, the DNA library (5 μl at 200 μM) was mixed with 5 μl of selection buffer 3 (SB3) (100 mM Tris-HCl at pH 8.2, 200 mM NaCl and 10 mM MgCl₂) for a final concentration of 100 μM DNA library, 50 mM Tris-HCl at pH 8.2, 100 mM NaCl and 5 mM MgCl₂. This mixture was heated in the BioRad iCycler™ to 94° C. for 1 min, and then cooled to 20° C. at a rate of 0.5° C./s. After the folding of the DNA library, 5 μl of 200 nM I-SceI dissolved in selection buffer 1 (SB1) (50 mM Tris-HCl at pH 8.2, 100 mM NaCl and 5 mM MgCl₂) was added to 5 μl of the DNA-SB3 mixture to make the final volume to 10 μl. […]

[7] = biological target: T1, I-SceI homing endonuclease (expressed …); test: cell_activity; gene correction over C.ADE2.54; BY4742 and 55R5-3C
Protocol: as §1, with “Sequences of oligonucleotides used for repair can be found in Table 1. Cells from each transformation were diluted appropriately and plated to synthetic complete medium lacking the respective amino acid and containing 2% galactose for I-SceI induction, 2 or 0.2% galactose for HO induction or 2% glucose for I-SceI or HO repression. The exception to this is the experiment to determine the position of the aptamer in the targeting DNA sequence (at the 5′ or 3′ end). For” for “For”, “described […]” for “described”

[8] = biological target: T2, I-SceI homing endonuclease; test: capillary electrophoresis with LIF; binding affinity about 52.49 uM; binding also seen by EMSA; conditions: tags: provided by F. Gimble (Purdue University), dialyzed; label: FAM
Protocol: as §2

B1: A7.TRP5.54 (ssDNA)
DNA: GCGGGCGCTGTTGACAGCGGTCAGGTGGATGGGATGGGAAAAGGGTTTTGATGAAGCTGTCGCGGATCCCACATTCTGGGAAGACTTCAA
Question: B1 was tested. Which activity [1] did it give?
Answer: The activity was 7 fold.

B2: A7.LEU2.54 (ssDNA)
DNA: GCGGGCGCTGTTGACAGCGGTCAGGTGGATGGGATGCGCTTTCATGGCCCTACAACATGAGCCACCATTGCCTATTTGGTCCTTGGATAA
Question: For B2, which activity [2] is on record?
Answer: Its activity is 2 fold.

B3: P1-r-P2 (ssDNA)
DNA: CTTCTGCCCGCCTCCTTCCGGTCGGGCACACCTGTCATACCCAATCTCGAGGCCAGACGAGATAGGCGGACACT
Question: Does B3 bind [3]?
Answer: Result: no binding

B4: A7.TRP5.40 (ssDNA)
DNA: GCGGGCGCTGTTGACAGCGGTCAGGTGGATGGGATGGGTTTTGATGAAGCTGTCGCGGATCCCACATTCTGGGAAG
Question: With B4 as the binder, how does the activity [4] read?
Answer: Its activity is 15 fold.

B5: A7.TRP1.54 (ssDNA)
DNA: GCGGGCGCTGTTGACAGCGGTCAGGTGGATGGGATGGTGGCAAGAATACCAAGAGTTCCTCGGTTTGCCAGTTATTAAAAGACTCGTATT
Question: How did the activity [5] turn out when B5 was run?
Answer: The activity was 2.5 fold.

Question: For GCGGGCGCTGTTGACAGCGGTCAGGTGGATGGGATG (ssDNA) [A7], which Kd [6] is on record?
Answer: Its Kd is 3.16 µM.

B6: A7.ADE2.54 (ssDNA)
DNA: GCGGGCGCTGTTGACAGCGGTCAGGTGGATGGGATGGGACATTATACCATTGATGCTTGCGTCACTTCTCAATTTGAAGCTCATTTGAGA
Question: Which activity [7] does the source give for B6 here?
Answer: Its activity is 3 fold.

Question: How did the Kd [8] turn out when TGAAGGCCAAAACGGCTGAATCGATAGT (ssDNA) [A4] was run?
Answer: Its Kd is 52.5 µM.
